Data set [1] deals with T1, Rap1SHY (Saccharomyces cerevisiae? (budding …, UniProt P11938 1-827, S392A;H393A;Y394A)).
T1 sequence: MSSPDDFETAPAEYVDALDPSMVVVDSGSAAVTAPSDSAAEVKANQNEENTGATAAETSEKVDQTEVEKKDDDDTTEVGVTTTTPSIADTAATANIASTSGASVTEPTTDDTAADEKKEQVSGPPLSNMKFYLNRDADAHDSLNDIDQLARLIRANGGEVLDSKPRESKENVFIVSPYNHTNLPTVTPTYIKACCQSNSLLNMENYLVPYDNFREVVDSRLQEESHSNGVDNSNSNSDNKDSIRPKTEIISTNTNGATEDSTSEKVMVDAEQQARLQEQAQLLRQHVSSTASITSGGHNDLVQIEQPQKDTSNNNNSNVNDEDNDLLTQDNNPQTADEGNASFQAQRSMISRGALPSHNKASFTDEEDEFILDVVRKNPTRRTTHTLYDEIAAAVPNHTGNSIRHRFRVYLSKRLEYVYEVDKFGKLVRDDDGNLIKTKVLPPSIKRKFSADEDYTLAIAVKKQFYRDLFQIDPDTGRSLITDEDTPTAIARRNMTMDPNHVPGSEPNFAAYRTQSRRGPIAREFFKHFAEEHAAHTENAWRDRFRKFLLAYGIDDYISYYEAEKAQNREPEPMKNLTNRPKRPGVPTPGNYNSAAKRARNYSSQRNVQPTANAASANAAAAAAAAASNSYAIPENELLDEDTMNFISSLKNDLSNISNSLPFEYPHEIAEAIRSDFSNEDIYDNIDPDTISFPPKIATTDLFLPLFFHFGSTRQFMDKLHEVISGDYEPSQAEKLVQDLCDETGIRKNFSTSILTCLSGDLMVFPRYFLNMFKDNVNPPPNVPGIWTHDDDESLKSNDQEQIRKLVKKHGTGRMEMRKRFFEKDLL
Nature of the data set: EMSA; 5-50 nM protein; affinity similar to Rap1; 20 mM Hepes-KOH pH 8, 100 mM KCl, 10 ug/ml BSA, 1 mM EDTA, 2 mM MgCl2, 5% glycerol, 30 min at room temperature; 0.5 nM 32P duplex; 6% gel run at 4 C; concentrations of active protein (~85% active). Conditions: protein: recombinant; tags: N-terminal GST, C-terminal 6xHis (pGST-RAP1 SHY-6xHis); label: 32P 5' end label on one strand (PNK); blunt.

Data set [2] addresses T2, Rap1 (Saccharomyces cerevisiae? (budding …, UniProt P11938 1-827)).
T2 sequence: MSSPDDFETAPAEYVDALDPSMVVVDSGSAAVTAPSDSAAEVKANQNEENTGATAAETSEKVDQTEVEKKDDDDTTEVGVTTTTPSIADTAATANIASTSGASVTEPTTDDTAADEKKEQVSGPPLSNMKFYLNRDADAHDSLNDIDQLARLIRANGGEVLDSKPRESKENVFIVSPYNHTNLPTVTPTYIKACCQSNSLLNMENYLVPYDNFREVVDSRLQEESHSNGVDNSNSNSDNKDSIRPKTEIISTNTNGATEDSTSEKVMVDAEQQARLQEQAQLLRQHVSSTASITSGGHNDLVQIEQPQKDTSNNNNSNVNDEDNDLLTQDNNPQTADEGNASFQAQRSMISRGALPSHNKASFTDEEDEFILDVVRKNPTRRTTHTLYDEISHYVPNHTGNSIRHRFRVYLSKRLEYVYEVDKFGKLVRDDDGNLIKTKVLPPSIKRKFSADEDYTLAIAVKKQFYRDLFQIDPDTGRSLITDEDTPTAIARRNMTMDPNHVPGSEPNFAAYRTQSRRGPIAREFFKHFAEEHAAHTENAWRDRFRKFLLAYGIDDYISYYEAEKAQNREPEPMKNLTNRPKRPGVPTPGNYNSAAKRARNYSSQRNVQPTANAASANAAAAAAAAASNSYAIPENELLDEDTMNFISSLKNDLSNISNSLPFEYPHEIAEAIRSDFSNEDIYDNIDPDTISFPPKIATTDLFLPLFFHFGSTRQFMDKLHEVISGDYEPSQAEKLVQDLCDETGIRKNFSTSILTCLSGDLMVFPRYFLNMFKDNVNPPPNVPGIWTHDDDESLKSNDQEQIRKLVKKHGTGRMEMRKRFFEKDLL
Nature of the data set: EMSA; 5-50 nM protein; affinity similar to Rap1SHY; 20 mM Hepes-KOH pH 8, 100 mM KCl, 10 ug/ml BSA, 1 mM EDTA, 2 mM MgCl2, 5% glycerol, 30 min at room temperature; 0.5 nM 32P duplex; 6% gel run at 4 C; concentrations of active protein (~85% active). Conditions: protein: recombinant; tags: N-terminal GST, C-terminal 6xHis (Ni-NTA and GST resin purified); label: 32P 5' end label on one strand (PNK); blunt. (In general: Mobility shift assays separate free from complexed probe on a gel.)

Data set [3] addresses histone H3/H4 tetramers, P61830;P02309. Description: GST pull-down, H3 immunoblot quantitation. Particulars: chain shown with the change, read off a plot; for ratio to parent: 0.5 μM GST-SANT, 0.5 μM histones, 400 mM NaCl, N = 2, parent: est. 1.0; for response: 2 μM Rap1 truncated constructs, 2 μM H3/H4, 400 mM NaCl, N = 3, scale: relative H3 signal.
The target of data set [4] is T1, Rap1SHY. Nature of the data set: EMSA; 0.5-100 nM protein; higher affinity than Rap1; 20 mM Hepes-KOH pH 8, 100 mM KCl, 10 ug/ml BSA, 1 mM EDTA, 2 mM MgCl2, 5% glycerol, 30 min at room temperature; 0.5 nM 32P duplex; 6% gel run at 4 C; concentrations of active protein (~85% active). Conditions: protein: recombinant; tags: N-terminal GST, C-terminal 6xHis (pGST-RAP1 SHY-6xHis); label: 32P 5' end label on one strand (PNK); blunt.

The target of data set [5] is T2, Rap1. Nature of the data set: EMSA; 0.5-100 nM protein; lower affinity than Rap1SHY; 20 mM Hepes-KOH pH 8, 100 mM KCl, 10 ug/ml BSA, 1 mM EDTA, 2 mM MgCl2, 5% glycerol, 30 min at room temperature; 0.5 nM 32P duplex; 6% gel run at 4 C; concentrations of active protein (~85% active). Conditions: protein: recombinant; tags: N-terminal GST, C-terminal 6xHis (Ni-NTA and GST resin purified); label: 32P 5' end label on one strand (PNK); blunt.

Data set [6] concerns the target T2, Rap1. Description: EMSA; 5-500 nM protein; affinity similar to Rap1SHY; 20 mM Hepes-KOH pH 8, 100 mM KCl, 10 ug/ml BSA, 1 mM EDTA, 2 mM MgCl2, 5% glycerol, 30 min at room temperature; 0.5 nM 32P duplex; 6% gel run at 4 C; concentrations of active protein (~85% active). Particulars: protein: recombinant; tags: N-terminal GST, C-terminal 6xHis (Ni-NTA and GST resin purified); label: 32P 5' end label on one strand (PNK); blunt.

Data set [7] addresses T1, Rap1SHY. Description: EMSA; 5-500 nM protein; affinity similar to Rap1; 20 mM Hepes-KOH pH 8, 100 mM KCl, 10 ug/ml BSA, 1 mM EDTA, 2 mM MgCl2, 5% glycerol, 30 min at room temperature; 0.5 nM 32P duplex; 6% gel run at 4 C; concentrations of active protein (~85% active). Conditions: protein: recombinant; tags: N-terminal GST, C-terminal 6xHis (pGST-RAP1 SHY-6xHis); label: 32P 5' end label on one strand (PNK); blunt.

This is an account of results in PMC6974733, “Rap1‐mediated nucleosome displacement can regulate gene expression in senescent cells without impacting the pace of senescence”.

B1: TEF2 promoter Rap1 site (dsDNA)
DNA 1: TGTTGCACCCACACATTTA
DNA 2: TAAATGTGTGGGTGCAACA
Regarding B1, the binding result with Rap1SHY [1] and in the data set with Rap1 [2] was “binds” each time.

B2: GST-SANT, P11938 D389A; E390A; I391A (protein)
chain: KASFTDEEDEFILDVVRKNPTRRTTHTLYAAASHYVPNHTGNSIRHRFRVY
For the molecule B2, in data set [3], the ratio to parent came to 0.82.

B3: GST-SANT, P11938 H398A; T399A; G400A (protein)
chain: KASFTDEEDEFILDVVRKNPTRRTTHTLYDEISHYVPNAAANSIRHRFRVY
As for B3, the ratio to parent in data set [3] stood at 0.62.

B4: GST-SANT, P11938 S392A; H393A; Y394A (protein)
chain: KASFTDEEDEFILDVVRKNPTRRTTHTLYDEIAAAVPNHTGNSIRHRFRVY
As for B4, the ratio to parent in data set [3] was 0.21.

B5: GST-SANT, P11938 N401A; S402A; I403A (protein)
chain: KASFTDEEDEFILDVVRKNPTRRTTHTLYDEISHYVPNHTGAAARHRFRVY
Consider B5, for which the ratio to parent in data set [3] was determined as 0.97.

B6: GST-Rap1^643Δ S392A; H393A; Y394A (protein)
chain: MSSPDDFETAPAEYVDALDPSMVVVDSGSAAVTAPSDSAAEVKANQNEENTGATAAETSEKVDQTEVEKKDDDDTTEVGVTTTTPSIADTAATANIASTSGASVTEPTTDDTAADEKKEQVSGPPLSNMKFYLNRDADAHDSLNDIDQLARLIRANGGEVLDSKPRESKENVFIVSPYNHTNLPTVTPTYIKACCQSNSLLNMENYLVPYDNFREVVDSRLQEESHSNGVDNSNSNSDNKDSIRPKTEIISTNTNGATEDSTSEKVMVDAEQQARLQEQAQLLRQHVSSTASITSGGHNDLVQIEQPQKDTSNNNNSNVNDEDNDLLTQDNNPQTADEGNASFQAQRSMISRGALPSHNKASFTDEEDEFILDVVRKNPTRRTTHTLYDEIAAAVPNHTGNSIRHRFRVYLSKRLEYVYEVDKFGKLVRDDDGNLIKTKVLPPSIKRKFSADEDYTLAIAVKKQFYRDLFQIDPDTGRSLITDEDTPTAIARRNMTMDPNHVPGSEPNFAAYRTQSRRGPIAREFFKHFAEEHAAHTENAWRDRFRKFLLAYGIDDYISYYEAEKAQNREPEPMKNLTNRPKRPGVPTPGNYNSAAKRARNYSSQRNVQPTANAASANAAAAAAAAASNSYAIPENELLDEDT
For the molecule B6, in data set [3] (parent: est. 1.3), the response is 0.71.

B7: TeloA telomeric sequence (dsDNA)
DNA 1: GCCGCACACCCACACACCAGTG
DNA 2: CACTGGTGTGTGGGTGTGCGGC
Take B7: the binding result with Rap1SHY [4] and with Rap1 [5] was “binds” each time.

B8: GST-Rap1^CΔ, P11938 S392A; H393A; Y394A (protein)
chain: MSSPDDFETAPAEYVDALDPSMVVVDSGSAAVTAPSDSAAEVKANQNEENTGATAAETSEKVDQTEVEKKDDDDTTEVGVTTTTPSIADTAATANIASTSGASVTEPTTDDTAADEKKEQVSGPPLSNMKFYLNRDADAHDSLNDIDQLARLIRANGGEVLDSKPRESKENVFIVSPYNHTNLPTVTPTYIKACCQSNSLLNMENYLVPYDNFREVVDSRLQEESHSNGVDNSNSNSDNKDSIRPKTEIISTNTNGATEDSTSEKVMVDAEQQARLQEQAQLLRQHVSSTASITSGGHNDLVQIEQPQKDTSNNNNSNVNDEDNDLLTQDNNPQTADEGNASFQAQRSMISRGALPSHNKASFTDEEDEFILDVVRKNPTRRTTHTLYDEIAAAVPNHTGNSIRHRFRVYLSKRLEYVYEVDKFGKLVRDDDGNLIKTKVLPPSIKRKFSADEDYTLAIAVKKQFYRDLFQIDPDTGRSLITDEDTPTAIARRNMTMDPNHVPGSEPNFAAYRTQSRRGPIAREFFKHFAEEHAAHTENAWRDRFRKFLLAYGIDDYISYYEAEKAQNREPEPMKNLTNRPKRPGVPTPGNYNSAAKRAR
Turning to B8, the response in data set [3] (parent: est. 0.68) was 0.47.

B9: GAC1 NRTS promoter (dsDNA)
DNA 1: AATAATACATCACATTAACTGTCTATAAGAGGCTGGTAC
DNA 2: GTACCAGCCTCTTATAGACAGTTAATGTGATGTATTATT
As to B9, the “dissociation constant (Kd)” value with Rap1 [6] and with Rap1SHY [7] was ~10 fold vs TEF2 (printed: Kd approximately 10-fold lower than in B; titration range suggests affinity is meant) throughout.
